Experiment in all cases: SEC; Superdex 75 10/300 GL column, after Ni-NTA purification; absorbance at 280 nm; proteins eluted at about 80 kDa
In general terms: SEC sorts molecules by how far they enter the pores of the column.

Assay [1] deals with D22G-Angiogenin-GST (human Angiogenin D22G fused to GST, with a C-terminal hexa-histidine tag) (human) (UniProt P03950).
Assay [2] has as its target L35P-Angiogenin-GST (human Angiogenin L35P fused to GST, with a C-terminal hexa-histidine tag) (human) (UniProt P03950).
For assay [3], the target named is wild-type Angiogenin-GST (human Angiogenin fused to GST, with a C-terminal hexa-histidine tag) (human) (UniProt P03950).

One may read the stoichiometry N as the number of molecules, sites or subunits per partner or assembly. “D22G-Angiogenin-GST (human Angiogenin D22G fused to GST, with a C-terminal hexa-histidine tag) (from UniProt P03950 25-147) (enzyme)”: the stoichiometry N in assay [1] is 2.
The substance “L35P-Angiogenin-GST (human Angiogenin L35P fused to GST, with a C-terminal hexa-histidine tag) (from UniProt P03950 25-147) (enzyme)” had a stoichiometry N in assay [2] of 2.
For the substance “wild-type Angiogenin-GST (human Angiogenin fused to GST, with a C-terminal hexa-histidine tag) (from UniProt P03950 25-147) (enzyme)”, the stoichiometry N in assay [3] turned out to be 2.
